Starred links: 1 amine or outer side, 2 acyl side, 3 side chain; linkers in the order of their positions; H or OH if unused. Positions of bridges follow the written chain, without caps; N, C: chain ends. Non-standard residues stand in square brackets, D forms with d. Primed or numbered codes have the meaning given here. B5(4) = 2,2-bis(4-pentenyl)glycine = 2-amino-2-(pent-4-en-1-yl)hept-6-enoic acid (stitching residue), C=CCCCC(CCCC=C)(N[*:1])C(=O)[*:2]; B5 = 2-amino-2-(pent-4-en-1-yl)hept-6-enoic acid, C=CCCCC(CCCC=C)(N[*:1])C(=O)[*:2]; Phe(4-Cl) = N[C@@H](Cc1ccc(Cl)cc1)C(=O)O; Phe(4-NH2) = Nc1ccc(C[C@H](N)C(=O)O)cc1; Phe(2-F) = N[C@@H](Cc1ccccc1F)C(=O)O; Bta = N[C@@H](Cc1csc2ccccc12)C(=O)O; αAllylPro = C=CC[C@@]1(C(=O)O)CCCN1; S8 = C=CCCCCCC[C@](C)(N)C(=O)O; hSer = N[C@@H](CCO)C(=O)O

B1: I-317 (peptide)
peptide: Ac-[αAllylPro]DA[B5]DDAA[Phe(2-F)]V[S8]FWQ-NH2
modifications: staple 1-4, 4-11
notes: Ac-PL3-Asp-Ala-B5-Asp-Asp-Ala-Ala-2FF-Val-S8-Phe-Trp-Gln-NH2; stapled peptide composition
B2: I-294 (peptide)
peptide: Ac-[αAllylPro]DA[B5(4)]DDAAFQ[S8]F[Bta]Q-NH2
modifications: staple 1-4, 4-11
notes: Ac-PL3-Asp-Ala-B5-Asp-Asp-Ala-Ala-Phe-Gln-S8-Phe-BztA-Gln-NH2; stapled peptide composition
B3: I-309 (peptide)
peptide: Ac-[αAllylPro]DA[B5]DDAA[Phe(4-Cl)]V[S8]FWQ-NH2
modifications: staple 1-4, 4-11; not fully specified; printed as Ac-PL3-Asp-Ala-B5-Asp-Asp-Ala-Ala-4C1F-Val-S8-Phe-Trp-Gln-NH2
notes: Ac-PL3-Asp-Ala-B5-Asp-Asp-Ala-Ala-4C1F-Val-S8-Phe-Trp-Gln-NH2; stapled peptide composition
B4: I-299 (peptide)
peptide: Ac-[αAllylPro]D[hSer][B5(4)]DDAAFQ[S8]F[Bta]A-NH2
modifications: staple 1-4, 4-11
notes: Ac-PL3-Asp-Hse-B5-Asp-Asp-Ala-Ala-Phe-Gln-S8-Phe-BztA-Ala-NH2; stapled peptide composition
B5: I-291 (peptide)
peptide: XDAXDDAAFVXFWA
modifications: not fully specified; N-terminal acetyl (Ac); C-terminal amide (NH2); PL3 at 1, B5 at 4, S8 at 11; stapled PL3-B5 and B5-S8
notes: Ac-PL3-Asp-Ala-B5-Asp-Asp-Ala-Ala-Phe-Val-S8-Phe-Trp-Ala-NH2; stapled peptide composition
B6: I-292 (peptide)
peptide: XDAXDDAAFVXFWA
modifications: not fully specified; N-terminal acetyl (Ac); C-terminal amide (NH2); PL3 at 1, B5 at 4, S8 at 11; stapled PL3-B5 and B5-S8
notes: as for B5
B7: I-316 (peptide)
peptide: Ac-[αAllylPro]DA[B5]DDAAFQ[S8]FWA-NH2
modifications: staple 1-4, 4-11
notes: Ac-PL3-Asp-Ala-B5-Asp-Asp-Ala-Ala-Phe-Gln-S8-Phe-Trp-Ala-NH2; stapled peptide composition
B8: I-311 (peptide)
peptide: XDAXDDAAFVXFWQ
modifications: not fully specified; N-terminal acetyl (Ac); C-terminal amide (NH2); PL3 at 1, B5 at 4, S8 at 11, 3ClF (printed 3C1F) at 12; stapled PL3-B5 and B5-S8
notes: Ac-PL3-Asp-Ala-B5-Asp-Asp-Ala-Ala-Phe-Val-S8-3C1F-Trp-Gln-NH2; stapled peptide composition
B9: I-310 (peptide)
peptide: XDAXDDAAFVXFWQ
modifications: not fully specified; N-terminal acetyl (Ac); C-terminal amide (NH2); PL3 at 1, B5 at 4, S8 at 11, 3ClF (printed 3C1F) at 12; stapled PL3-B5 and B5-S8
notes: as for B8
B10: I-324 (peptide)
peptide: Ac-[αAllylPro]DA[B5(4)]D[Phe(4-NH2)]AAFV[S8]FWQ-NH2
modifications: staple 1-4, 4-11
notes: Ac-PL3-Asp-Ala-B5-Asp-4AmPhe-Ala-Ala-Phe-Val-S8-Phe-Trp-Gln-NH2; stapled peptide composition
B11: I-313 (peptide)
peptide: XDAXDDAAFVXFWQ
modifications: not fully specified; N-terminal acetyl (Ac); C-terminal amide (NH2); PL3 at 1, B5 at 4, S8 at 11, 4ClF (printed 4C1F) at 12; stapled PL3-B5 and B5-S8
notes: Ac-PL3-Asp-Ala-B5-Asp-Asp-Ala-Ala-Phe-Val-S8-4C1F-Trp-Gln-NH2; stapled peptide composition
B12: I-315 (peptide)
peptide: XHAXDEAAFVXFWQ
modifications: not fully specified; N-terminal acetyl (Ac); C-terminal amide (NH2); PL3 at 1, B5 at 4, S8 at 11; stapled PL3-B5 and B5-S8
notes: Ac-PL3-His-Ala-B5-Asp-Glu-Ala-Ala-Phe-Val-S8-Phe-Trp-Gln-NH2; stapled peptide composition
B13: I-314 (peptide)
peptide: XHAXDEAAFVXFWQ
modifications: not fully specified; N-terminal acetyl (Ac); C-terminal amide (NH2); PL3 at 1, B5 at 4, S8 at 11; stapled PL3-B5 and B5-S8
notes: as for B12
B14: I-319 (peptide)
peptide: XDAXDDAAFVXFWQ
modifications: not fully specified; N-terminal acetyl (Ac); C-terminal amide (NH2); PL3 at 1, B5 at 4, S8 at 11, 2FF at 12; stapled PL3-B5 and B5-S8
notes: Ac-PL3-Asp-Ala-B5-Asp-Asp-Ala-Ala-Phe-Val-S8-2FF-Trp-Gln-NH2; stapled peptide composition
B15: I-318 (peptide)
peptide: XDAXDDAAFVXFWQ
modifications: not fully specified; N-terminal acetyl (Ac); C-terminal amide (NH2); PL3 at 1, B5 at 4, S8 at 11, 2FF at 12; stapled PL3-B5 and B5-S8
notes: as for B14
B16: I-312 (peptide)
peptide: XDAXDDAAFVXFWQ
modifications: not fully specified; N-terminal acetyl (Ac); C-terminal amide (NH2); PL3 at 1, B5 at 4, S8 at 11, 4ClF (printed 4C1F) at 12; stapled PL3-B5 and B5-S8
notes: as for B11

For one assay, the target named is T1, full-length beta-Catenin (Uniprot ID P35222) (Homo sapiens (Human), UniProt P35222 1-781).
T1 construct: the AlphaScreen used a Histidine (Nickel Chelate) detection kit, so a His tag is likely but not described; also called B-Catenin; bCat
T1 sequence: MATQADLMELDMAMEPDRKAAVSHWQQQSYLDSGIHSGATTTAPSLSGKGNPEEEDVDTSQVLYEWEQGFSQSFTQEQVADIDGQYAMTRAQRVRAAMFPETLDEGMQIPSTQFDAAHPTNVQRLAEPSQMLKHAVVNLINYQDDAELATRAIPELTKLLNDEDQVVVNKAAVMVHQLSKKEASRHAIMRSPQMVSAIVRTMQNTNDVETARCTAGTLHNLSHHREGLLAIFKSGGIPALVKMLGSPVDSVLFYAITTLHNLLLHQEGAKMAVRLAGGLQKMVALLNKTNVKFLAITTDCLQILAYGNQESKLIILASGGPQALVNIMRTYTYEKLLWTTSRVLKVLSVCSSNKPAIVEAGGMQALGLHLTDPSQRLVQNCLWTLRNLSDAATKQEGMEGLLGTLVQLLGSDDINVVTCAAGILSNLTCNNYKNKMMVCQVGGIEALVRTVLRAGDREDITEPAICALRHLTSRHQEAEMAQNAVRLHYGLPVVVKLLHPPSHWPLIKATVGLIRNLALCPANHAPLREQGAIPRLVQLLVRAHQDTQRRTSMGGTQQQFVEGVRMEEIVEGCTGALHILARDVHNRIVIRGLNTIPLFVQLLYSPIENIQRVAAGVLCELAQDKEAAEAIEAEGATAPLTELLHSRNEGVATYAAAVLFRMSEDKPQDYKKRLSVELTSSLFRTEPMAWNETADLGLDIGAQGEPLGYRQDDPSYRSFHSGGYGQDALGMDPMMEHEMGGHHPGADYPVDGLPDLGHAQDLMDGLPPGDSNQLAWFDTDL
The assay can be described thus: FP competition vs 5FAM-TCF4(10-53) probe on full-length beta-catenin. The method, then:
The plate was incubated protected from light for 60 minutes at 20° C. prior to read. Reads were performed on a CLARIOstar plate reader (BMG Labtech) in duplicate, and data were fitted to a 1:1 binding model with hill slope using an in-house script. All provided concentrations are final concentrations.
With B1, the EC50 came out at 5000 nM. This counts as single-digit micromolar.

As for B2, it took 130 nM to reach a half-maximal effect (EC50). Compared with the last molecule, the EC50 is about 38-fold lower.

As to B3, a half-maximal effect (EC50) was put at 3120 nM. Same read-out and setting: the same measure for B4: 1300 nM. B5 registered an EC50 of 3130 nM. Take B6: a half-maximal effect (EC50) was put at 1870 nM. Take B7: the response was half-maximal at 3980 nM (EC50). Compared with the last molecule, the EC50 is about 2.1-fold higher.

In the next assay the target is T1, full-length beta-Catenin (Uniprot ID …). In words: AlphaScreen competition vs biotin-TCF4(10-53) on full-length beta-catenin. The method, then:
Equal volume of the titrated peptide was added to the plate and incubated for 15 minutes at 20° C. Then 4 uL of donor and 4 uL acceptor beads at 10 ug/mL were added to the plate, for a 16 uL reaction pool and protected from light for 60 minutes at 20° C. prior to read. Reads were performed on a CLARIOstar plate reader (BMG Labtech) in duplicate, and data were fitted to a 1:1 binding model with hill slope using an in-house script. All provided concentrations are final concentrations.
Background: In Alpha technology, singlet oxygen from a donor bead excites a nearby acceptor bead.
B1 returned an EC50 of 443 nM. On to B8, for which the EC50 came to 1240 nM.

The molecule B9 gave an EC50 of 3240 nM. B10 yielded an EC50 of 1740 nM. The same measure, in the same setting: next, B2: 40 nM; B11: 3600 nM; B12: 9900 nM. The same measure, in the same setting: the same measure for B13: no less than 10000 nM; for B3: 181 nM.

B4 showed an EC50 of 189 nM. With B14, the EC50 came to 54 nM. On the same count and under the same terms, next, B15: 121 nM.

Consider B5, for which the response was half-maximal at 327 nM (EC50). Regarding B6, the EC50 was 187 nM. Turning to B7, the EC50 was determined as 136 nM. Still for that read-out and setting: the same measure for B16: no less than 10000 nM.

The term EC50 denotes the concentration needed to bring the measured effect to its halfway point.

The values are drawn from US20240116985A1 (published 2024).
